Laboratory results from publication PMC8786603.
Read-outs that look alike come from different tables or passages of the source.

How the values were obtained:
Assay in all cases: cryo-EM structure
[1] = biological target: SARS-CoV-2 Delta prefusion-stabilized soluble trimeric spike ectodomain (S-trimer) (SARS-CoV-2) (UniProt P0DTC2)
[2] = biological target: SARS-CoV-2 Omicron prefusion-stabilized soluble trimeric spike ectodomain (S-trimer) (SARS-CoV-2) (UniProt P0DTC2)
[3] = biological target: SARS-CoV-2 Omicron prefusion-stabilized soluble trimeric spike ectodomain (S-trimer) (SARS-CoV-2) (UniProt P0DTC2); remark: listed apart in the source

Substance	stoichiometry N [1] [protomers]	stoichiometry N [2] [protomers]	stoichiometry N [3] [protomers]
SARS-CoV-2 Delta prefusion-stabilized soluble trimeric spike ectodomain (S-trimer) (from UniProt P0DTC2 14-1208) (natural protein)	3		
SARS-CoV-2 Omicron prefusion-stabilized soluble trimeric spike ectodomain (S-trimer) (from UniProt P0DTC2 14-1208) (natural protein)		3	3
